From patent US6933284

Molecular target: LDL receptor on normal human fibroblasts (human) (UniProt P01130)
Assay: competition with 125I-labeled human plasma LDL (2 µg/ml) for LDL receptors on normal human fibroblasts, 3 h at 4 °C

Substance | ED50
RK3359-3369SA LDL (recombinant LDL, human apo-B100 with the arginines of Site B changed to serines and the lysines to alanines), P04114 28-4563 | > 20 µg/mL
K3363E LDL (recombinant LDL, human apo-B100 with glutamic acid for lysine at residue 3363), P04114 28-4563 | 2.4 µg/mL
R3500Q LDL (recombinant LDL, human apo-B100 with glutamine for arginine at residue 3500), P04114 28-4563 | > 20 µg/mL
recombinant control LDL (human apo-B100 with leucine in place of glutamine at position 2153), P04114 28-4563 | 2.3 µg/mL
